Laboratory results as given in the nanobody polyreactivity screen of Harvey et al. (2022).

Assay: yeast display, Sf9 membrane polyspecificity reagent, FACS + sequencing; frameworks hold sequencing errors
In short: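 Sorting gates, low and high (top ~1%), were placed on anti-HA fluorescence to track expression and on streptavidin fluorescence to track reagent binding. A clone's polyreactivity label is taken from the gate it came out of. The reagent was 10% biotinylated, detergent-solubilized Sf9 membrane, applied for 1 hour at 4 °C to galactose-induced yeast display cells.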

| Sequence | polyreactivity (PSR sort gate) |
| --- | --- |
| QVQLVDSGGGLVQAGGSLSLSCAASGSTFTWYAMGWYIQAPGKERELVAASRWSGGNTYYADSVKGRFTISRDNAKHTVYLQMNSLKPEDPAVYYCAARLYTAADHYNDWGQGTQVTGSS | high polyreactivity |
| QVQLVDSGGGLVQAGVSLRLSCPASGSIFRPNAMGWYRQAPGKERELVAAINTSDDSTYYADSVKGRFTISRDNAKNTVYLQMNSLIREDTAVYYCAAEYYAYAYGDDYDYWGQGTQVTVSS | low polyreactivity |
| QVQLVDSGGGLVQARGSLRLTCAASGRIYNLYAMGWYRQAPGKERELVAAIRGRGTSTYYADSVKVRFTISRDKAKNTVYFQMNSLKPEDTAVYYCASEGGYGPTLQDTSRYEYWGQGTQVTVSS | low polyreactivity |
| QVQLVDSGGGLVQASGSLRLSCAASGSIFLFYAMGGYRQAPGKERQVVAAITSGGRTYYADSVKGRFTISRDNAKNTVYLQMNSLKPEDTAVYYCNAVRFYSIGLGQDDYWGQGTQVTVSS | low polyreactivity |
| QVQLVDSGGGLVQGGGRLRLSCAASGFTLQSNAMGWYRQAPGKERELVAAISFRGGSTYYADSVKGRFTISRDNAKNTVYLQKNSLKPEDTAVYYCAADFYVHSAYYYGYWGQGTQVTVSS | low polyreactivity |
| QVQLVDSGGGVVQAGGSLRLSCPASGRTFRGYAMGWYRQAPGKERELVAAISSGGSTYYADSVKGRFTISRDNAKNTVYLQMNSLKPEDTAVYYCAAGGPSTLDDYWGQGTQVTVSS | low polyreactivity |
| QVQLVDSGGGVVQAGLSLRLSCAASGRTFPGYAIGWYRQAPGKEMELVASITSRGGITYYADSVKGRFTISRDNAKITVYLQLNSLKPEDSAVYYCATDFAVTKMEYWGQGSQVTVSS | low polyreactivity |
| QVQLVDSGRGLVQAGGSLRLSCAASGHIFLYYTMAWYRQAPGKERELVAGITIGGSTIYADSVKGRFTISRDNAKNSVYLQMNSMKPEDTAVYYCNVVNYVFIYSYWEYYYWGQGTEVTVSS | low polyreactivity |
| QVQLVDSGRGLVQAGGSLRLSCAASGSIFDNYAMGSYRQAPGNERELVAAISGRGGSTYYADSVKGRFTISRDNAKNTVYLQMNSLKPEDTAVSYCNALVHQTYYDYDDWGHGTQVTVSS | high polyreactivity |
| QVQLVDSGVGLVQAGGSHRLSCAASAFTIDGYDMGWYRQAPGKERELVAAISWDGGSTYYADSVKGRFTISRDNAKNTVYLQMNSLKPEDTAVYYCAAPFPFVSEFYRYDYWGQGTQVTVST | low polyreactivity |
| QVQLVDSGVGLVQAGGSLRLSCASSGSTFTINAMACYRHAPGKERELVAAISSGDSYYADSVKGRFTISRDNAKNTVYLQMNSLKPEDTTAVYYCAADSPGDSSKYDYWGQGTQVTVSS | low polyreactivity |
| QVQLVDSRGCLVQAGGSLRLSFAASGSIFGYYSMVWYIQAPGKESELVAAISYSGSRTYYADSVKGRFTISRDNAKNTVYLQKNSLKPEDTAVYYCAVLRRDGFEYWGQGTQVTVSS | high polyreactivity |
| QVQLVDSRGGLLQAGGSLRLSCAASGSIISRNAKGWYRQAPGKESELVAAITRSGGSTYYADSVKGRFTISRENAKNTVYLQRNRLKPEDTAVYYCATPIFSARRYTGYVKYDYWAQGTQVTVSS | high polyreactivity |
| QVQLVDSRGGLVQAGGSLRLICAASGSTFGRYARGWYRPEPGTERELVAAISWRGGSTFYADSVKGRFTISRDNAKNTVYLLMISLKPEDTAVYYCAAVSYGRPRMGYWGQGTQVTVSS | high polyreactivity |
| QVQLVDSRGGLVQAGGSLRLSCAASGFTFWYYAMGWYRQAPGKERELVAAITNGGGSKYYADSVKGRFTISRDNAKNTFYLQMNSLKPEDTAVFYCAKDGHSYYPWEYDYWGQGTQVTVSS | low polyreactivity |
| QVQLVDSVGGLVQAGGSLRLSCAASGFTFYYNAMGLYRQAPGKERELVAAITSSGGSTYYADSVKGRFTISRDNAKNTVYLQMNSLKPEDTAVYYCAAVVYYRGYTYNYWGQGTQVTVSS | high polyreactivity |
| QVQLVDSVGGLVQAGGSLRLSCAASGSIFGVYAKGWYRQAPGKERELVAAIDESGGSTFYADSVKGRFTISRDNAKNTVYLQMNSLKPEDTAVYYCLVFREDSGPGDYYYWGQGTQVTVSS | low polyreactivity |
| QVQLVDSVGGLVQAGGSLRLSCAASGSIFNPYDMGWSRQAPGKERELVAAIDWSGGSTYYADSVKGRFTISRDNAKNTVYLQMNSLKPEDTAVYYCNARPDYSISLPGYPTLSEDDEYWGQGTQVTVSS | low polyreactivity |
| QVQLVDSVGGLVQAGGSLRLSCAASGSIFWTYAMGWYRQAPGKERELVATITYSDGNTYYADSVKGRFTISRDNAKNTVYLQMHSLKPEDTAVYYCNADGIYASISGYRYDYWGQGTQVTVSS | low polyreactivity |
| QVQLVDSVVGLVQAGGSLRLSFAASGYTYHYYAMGWYRQAPGKETELVAAISGSGSSTYYADSVKGRFTISRDNAKNTVYLQMNSLKPEDTAVYYCNARGHYPRARFGYKSGSDRYWGQGTQVTVSS | high polyreactivity |

| Sequence | polyreactivity (PSR sort gate) |
| --- | --- |
| QVQLVDSWGGLVQAGGSLRLSCAASGFIFPYNTMGWYRQAPGKERELVAAISSGGSTYYADSVKGRFTISRDNAKNTVYLQMNSLKPEDTAVYYCAVRGRRSPYGYWGQGTQVTVSS | high polyreactivity |
| QVQLVDTGGGIVQAGGSLRLSCAASGRTFFWNAMGWYRLAPGKERELVAAITWYGGSTYYADSVKGRFTISRDNAKNTVYLQMNSLKPEDSAVYYCAAVVSDYVWRYEYWGQGTQVTVSS | low polyreactivity |
| QVQLVDTGGGLVQAGGSLRFSCAASGSIFQVYAMGWYRQAPGKERELVASITSSGGSTYYADSVKGRFTISRDNAKNTVYLQMNSLKTEDTAVYYCADDQWSQDYDYWGQGTQVTVSS | low polyreactivity |
| QVQLVEAGGCLVQAGGSLRLSCAASGRIFRFYTMGWYRQAPGNERELVAAIRYSSVSTYYADSVKGRFTISRDNAKNTVYLQMNSLKPEDTAVYYCDAVHRSYVKTYNYWGLGTQVTVSS | high polyreactivity |
| QVQLVEAGGGLVQAGGSLRLSCAASGRIFVPYAMGWYRQAPGKEWELVAGISWSGGSTYYADSVKGRFTISRDNAKNTVYLQMNNLKPEDTPVYYCAAAKRRRPFDYWGQGTQVTVSS | high polyreactivity |
| QVQLVEAGGGLVQAGGSLRLSCAASGRIFYQNTMGWYIQAPGKERELVAAISKSGGRTYYADSVKGRFTISRDNAKNTVYLQMNSLKPEDTAVYYCDQGYASEMDYWGQVTQVTVSS | high polyreactivity |
| QVQLVEAGGGLVQAGGSLRLSCAASGSTFPYNARGWYSQAPGKDRELVAAMTSAGGTNYADSVKGRFTISRDNATNTVYLQMNSLKPEDTAVYYCAADGSGYYDWYYYWGQGTQVTVSS | low polyreactivity |
| QVQLVEAGGGLVQAGGSLRLSCAASGSTFVKNAMGWYRQAPGKERELVAAISYRGGRTYYADSVKRRFTISRDNAKNTVYLQMNSLKPEDTAVYYCAADASHLTGYEYWGQGTQGTVSS | high polyreactivity |
| QVQLVEAGGGLVQAGGSLRLSCAAYGRTFYTYAMGWYRQAPGKEREFVAAITWSGGSTYYADSVKGRFTISRDNAKNTVYLQMNSLKPEDPAVYYCAAGSRFRYSPGQSYEYGYWGQGTQVTVSS | low polyreactivity |
| QVQLVEAGVCLVQSGGRLRLSCAATGFTFTSKVIGWSRQAPGKERELVADISASDGRTYYADSVKGRFRISRENAKNTVYLQMNRLKTEDTAVYYCAASLWVYVGQARYHWYDYWGQGTQVTVSS | low polyreactivity |
| QVQLVEEGGGLVQAGGTRRLSCAASGSTFTVYVMGWYRQAPGQERELVAAINLSGGRTYYADSVKGRFTISRDNAKNTVYLQMNSLKPEDTAVYYCAADGSTWGDYRTYGYWGQGTLVTVSS | low polyreactivity |
| QVQLVESAAGLVQAGASHRLSCAASARTFTVNAMGWYRQAPGKERELVAAISGRSGRTSYADSVKGRFTISRDNAKNTVYLQMNSLKQEVTAVYYCAADYYFYFTYPARFGYWGLGTQVTVSS | high polyreactivity |
| QVQLVESAAGLVQAGASLRLSCAPSGSIFSGNALGWSRQAPGKARELVAAISQNGGRTYYADSVKGRFTISRDYAKNTVYLQMNILKPDDTAVYYCAALAVRFYSSYDYWGQGTQVTVSS | high polyreactivity |
| QVQLVESAAGLVQAGGSLRLSCAPSGSTFPRYAMGWYRQAPGKERELVAAITKNGGYTYYADSVKGRFTISRDNAKNTVYLQMNSLKPEDTAVYYCAAERWYSCYRVGVSYDYWGQGTQVTVSS | high polyreactivity |
| QVQLVESAAGLVQAGGSLSLSCAASGFIFWRYAMGWYRQAPGKERELVAAISVSGTRTYYADSVKGRFTISRDNAKNTVYLQMNSLKPEDTAVYYCNAASRSFSSDRAFDYWGQGTQVTVSS | high polyreactivity |
| QVQLVESAGDLVQAGRTLRFSCAPSGSIFKPNAMGWYRQAPGKERELVDDISRSGTSTYYADSVKGRFTISRDIAKNTVYLQMNSLKPEDTAVFNCATRYSGDYGYWGQGTQVTVSS | high polyreactivity |
| QVQLVESAGGIVQAGGSLRLSFAASGSTFTRYAMGWYRPAPGKERELVAAIDGGGGSTSYADSVKGRFTISRDHAKNTVYLQMNSLKPEDTAVYYCAAPLDTSSRIFDYWGHGTQVTVSS | low polyreactivity |
| QVQLVESAGGLVHAGGSLRLSCAASGNIFRWYAMGWYRQAPGKDRELVAAISSGGRTNYADSVKGRFTISRDNALNSVFLQMNSLKPEDTAVFYWYIVAGVTGRFYFWGQGTQVTVSS | low polyreactivity |
| QVQLVESAGGLVQAGASLRLSCAASGFIFRYNTKGWYRQAPGKEMELVATINRSGGSTYYADSVKGRFTISRDNAKNTVYLQMNSLKPVDTAVYYCAAVSLQPYYNAGATWDGDYWGQGTQVTVSS | high polyreactivity |
| QVQLVESAGGLVQAGASLRLSCAASGLIYRKYSMGWYRQAPGKERELVAAISSGGDTNYADSVKGLFTISRDNAKNTVYLQMNSLKPEDTAVYYCNADRKYWYGIALEYWGQGTQVTVSS | high polyreactivity |
